Data on 143 substances can be found in the supplement of paper PMC12042874.

± gives the uncertainty stated by the source.

This data set can be described thus: amyloid nucleation score (Sup35N fusion, yeast selection) (log enrichment); library NNK2; higher = more nucleation; inactive = no reads after selection. The method in brief:
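Nucleation score: DiMSum log enrichment of output over input reads, centred on the mode score of non-aggregating sequences. Only sequences with at least 100 input reads were kept. Reads came from Illumina sequencing of plasmid inserts before and after 7 days of growth at 30°C without adenine and uracil, in psi-negative yeast expressing Sup35N fused to peptides of 20 random codons after 24 hours of induction with 100 μM copper sulfate.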
RQLHLVLNRVGWMLWYTH showed an amyloid nucleation score of 0.684 ± 0.26.
Under RQYCIKDSWGSSGQLSVGLR stands 2.1 ± 0.17; under RRDFWPSVSLGCDFRIRFPR, 2.1 ± 0.12; under RRMTCALYVIRWFSVHYFYL, -1.79 ± 0.75.
RRRIRVCGSWFSGYN returned an amyloid nucleation score of -0.527 ± 0.5.
Under RRRTEGN stands 0.304 ± 0.8; under RRRVDSLIFYIKMRVLFNMF, “inactive”.
Under RRSDKLAVLWYSDKRMARWS stands -0.582 ± 0.33; under RRVGLSGRTKMSG, 0.048 ± 0.55; under RRYIMQSWLHATSEFPGCDP, 0.54 ± 0.53.
Under RSAFHCNWLISISSGKVSHM stands -0.452 ± 0.55; under RSALVGGRHNVVNWVRGSKM, 0.079 ± 0.55; under RSAWYTG, -0.203 ± 0.5.
In the case of RSFIGDNYISLRC, the amyloid nucleation score was -0.184 ± 0.29.
Next, RSGAVQWRQRMGCMPSVCDR: 1.46 ± 0.26; RSGLSVIYLYY: “inactive”; RSHMSRLIVDFNTG: 0.474 ± 0.3.
Next, RSIMIRHLKFRARGHTFSVN: 0.143 ± 0.36; RSLCDL: -0.755 ± 0.54.
Next, RSLHFFTSMHMCGRCLNRLF: 0.048 ± 0.45; RSLSLLLVFLAMCAIMVPMR: 8.575 ± 0.04.
The substance RSRSSFLHIFSSFKHISTR yielded an amyloid nucleation score of -0.74 ± 1.1.
Next, RSSKTNWWTGEISVPYGYWM: 0.368 ± 0.47.
Next, RSSLEKIMIGNFNYVRVKLH: 2.28 ± 0.18; RSSRHLDAYIEAS: 0.877 ± 0.28; RSSSCSNVMMVE: 0.935 ± 0.34.
Next, RSSSRASALTRYLSELGKKS: 0.694 ± 0.39; RSTNTRIIKLTKCAGPNRDE: 1.14 ± 0.17; RSVACVDDMHE: 4.916 ± 0.049.
Take RSVVVGGHNLRISTQAILIP: the amyloid nucleation score is 0.34 ± 0.64.
Under RTDRLCARHLGLFDDTVPET stands 0.664 ± 0.21; under RTGHTINFVEQPMHTVPMWH, 5.08 ± 0.068; under RTGRDFLSSIFFTSK, -1.8 ± 0.41.
Next, RTIQMVTSQSLPCFC: 6.196 ± 0.042; RTSGAVDCTHRFFSEWFKGV: “inactive”.
Next, RTVQQIAPVGGHERVKC: -0.175 ± 0.26; RTVRTAAMLTCGW: 0.855 ± 0.48.
In turn, RTWQCDDWSQYLLVVF had an amyloid nucleation score of -0.1 ± 1.
The substance RTYEMKAMRVASWQSS came in with an amyloid nucleation score of 1.9 ± 0.098.
RTYEMVIKFSGSLVRAFRVL had an amyloid nucleation score of -0.068 ± 0.79.
Under RVADVCTQVMRGL stands 1.9 ± 0.33.
Under RVASVSYVSVWYEMCQCFRG stands 9.503 ± 0.082.
Under RVCMINSYLLVTRCVGDN stands 8.387 ± 0.028; under RVDFFRFSVQSESWSVLH, 0.334 ± 0.35; under RVFLSGSWSTHGNFCRLRNV, -0.449 ± 0.41.
RVGCLWFRLYPLYSGFMRSR displayed an amyloid nucleation score of -1.08 ± 1.
Under RVGSFG stands 0.596 ± 0.4.
As for RVISGSMVETIDEDIVEGVN, the amyloid nucleation score was -0.332 ± 0.3.
Under RVLRSETYDSFSL stands -0.163 ± 0.32; under RVMEYEILLIFCI, 0.135 ± 0.65; under RVMRVISRPEELAWVA, 0.602 ± 0.29.
Under RVNCSFTDFVDVVIWKGRGN stands 5.07 ± 0.089.
Under RVNMDAGVLSVHLEAVGFHM stands 4.08 ± 0.057.
RVNNLLEKEGTSYGEFAYGL registered an amyloid nucleation score of 0.182 ± 0.45.
Next, RVPFWFT: -1.2 ± 0.49; RVPGPVHSSCYTAARFFCPM: 1.83 ± 0.14.
RVPSSHF came in with an amyloid nucleation score of 1 ± 0.47.
On to RVSDRHV, for which the amyloid nucleation score turned out to be 1.42 ± 0.099.
Next, RVSHEHVYLSNFVTPWLCYY: 5.913 ± 0.049.
Next, RWARQRAWTRLLNGE: 1.18 ± 0.48.
Under RWCSLDSQSDYSSM stands -0.681 ± 1; under RWMVHAA, -0.251 ± 0.76; under RWTLWFEGRLERLVAIIS, -0.133 ± 1.
Take RWYSYYTQGDFRRFFLGSN: the amyloid nucleation score entry is “inactive”.
Under RYAINCVEAYGLC stands -0.387 ± 0.63.
Under RYASDFWILNICAGDIVILL stands 8.495 ± 0.054; under RYGPIWGYCNKLFWARCTQL, 0.2 ± 0.49.
Under RYISPSQSAQVSGHLRNVQL stands 0.689 ± 0.62; under RYKKAHSSALRCK, 0.988 ± 0.74; under RYLIGNSGNYVNGCVEQALR, -0.365 ± 0.76.
With RYLNWRVCSNRLPGSEGLWA, the amyloid nucleation score came to 0.323 ± 0.32.
RYNHRFKVVLSHNIDLWQGS: the amyloid nucleation score is 0.689 ± 0.47.
Under RYPIVRTDMYIIVKFI stands 0.509 ± 0.81; under RYRRFVIGVQWQRLSRG, -0.19 ± 1.1.
Next, RYRTMSTRHPAYGVGGLLLM: 0.544 ± 0.36; RYSNMLN: 3.83 ± 0.096; RYVLSMFQLLLTYVQL: 0.561 ± 0.23.
Under RYVTKGLCLL stands 1.16 ± 0.47.
In turn, RYYHLCAI showed an amyloid nucleation score of 0.289 ± 0.8.
As for SAADQPKWRSTTSCVPSDVS, the amyloid nucleation score was determined as 3.74 ± 0.068.
Substance SACNARRVPFG registered an amyloid nucleation score of 0.788 ± 0.51.
For SAHFTIRKELFLKDTRRVV, the amyloid nucleation score was -0.47 ± 1.
Next, SARHDSRVYNWGLFMKYDVN: 4.12 ± 0.084; SARSIERSDYPMINARHHAC: 0.031 ± 0.34; SATEWIISVGGRAWRF: 2.65 ± 0.12.
Under SAVFLLRLCTQIKCMTVR stands “inactive”; under SCAHCCHRKVLR, 0.53 ± 0.3; under SCALF, -0.679 ± 1.1.
Turning to SCCMGICGKDLCDGIELKFP, the amyloid nucleation score was -0.936 ± 1.
Next, SCFGNVYGGVVLQAFGGVVS: 0.082 ± 1.1; SCLLWAF: -1.54 ± 1.1; SCLMIIPFVFMFEHYTFEEG: 7.71 ± 0.082.
Next, SCRSIRYEWRHDTVGRRSTR: 3.2 ± 0.064; SCSRWWFWRNATLEVLSKVR: 0.697 ± 0.81.
As to SCTALVKEKMRG, the amyloid nucleation score is 0.48 ± 0.32.
Under SCYLVVFPKIC stands “inactive”; under SDAFGRRHSSLAM, 1.56 ± 0.14; under SDCFMGANDVMNKLEYGLDA, 0.091 ± 0.22.
Next, SDGARLWR: 0.097 ± 1.1; SDIYRSSRLQ: 0.179 ± 0.33.
Next, SDMTNS: -1.55 ± 0.64; SDNAEGVSANFFVRPILSVF: -1.47 ± 1.1.
On to SDQQYGCDWVWLGRGPIEVA, for which the amyloid nucleation score came out at 0.252 ± 0.28.
Under SDSGQVVNSLGSKEGIRFFD stands -1.17 ± 0.38; under SDTFS, 0.68 ± 0.56.
Under SDVKYIGMCSCQHSFIMMGM stands 0.372 ± 0.36; under SDWII, -0.063 ± 0.56.
Under SDYHLFTYTLGINSTLDGRV stands -1.3 ± 0.38; under SEAYEGFSYSVLQYEP, -0.092 ± 0.36.
As to SEEIGLT, the amyloid nucleation score worked out at 0.426 ± 0.26.
Under SEFLRKVSFFLFYLFSSGHL stands -0.73 ± 0.61; under SEFVGSYWGFDLMLGLD, -0.807 ± 1; under SELFQLIGILHSNLFGIYMF, -0.427 ± 0.74.
Under SEWSRDRKRVKVSHFA stands 0.465 ± 0.17; under SEYVCSCYFSGLLNKLRLVE, 0.356 ± 0.43.
Next, SEYVLLT: “inactive”; SFACVSLIFISY: 5.72 ± 0.063.
As to SFFCMKQMLNFL, the amyloid nucleation score was 0.533 ± 0.35.
Under SFFLFWRFCIGAW stands -0.977 ± 0.63; under SFFQESHKRIDRVYKYGMGS, -0.96 ± 0.28.
Turning to SFGYPPVCLLFSHLHRRFLL, the amyloid nucleation score came to 0.237 ± 1.
Substance SFKHLT came in with an amyloid nucleation score of -0.853 ± 1.1.
In turn, SFLWCPGG came in with an amyloid nucleation score of 0.221 ± 0.33.
Substance SFMGLAMHRSLSSCSVRSWY gave an amyloid nucleation score of 0.199 ± 0.53.
Next, SFPMLVISVS: 4.7 ± 0.068; SFSILLEDTSS: -0.162 ± 0.76; SFSVYRFVGTLSGYADLGLG: 0.302 ± 0.37.
Under SFTGL stands -0.684 ± 0.44; under SFWNQKYCA, -0.117 ± 0.4.
Under SGAQA stands -0.966 ± 0.78; under SGCCR, -0.925 ± 1; under SGCGCGLGMPTCRRSVRG, 0.631 ± 0.19.
SGDGVLVSFSKDSGFQSFGS: the amyloid nucleation score was found to be 0.673 ± 0.2.
Next, SGHTRVGDFSF: 0.158 ± 0.3.
Next, SGIHEIFESVFFNTYFRRMT: -0.549 ± 1.
Next, SGLEEYLSHLMLQVRFQESR: 0.432 ± 0.57; SGLLSFLTHSLFEFLSNKQW: -0.557 ± 1.1; SGLVVMRLLFLRGY: -0.558 ± 0.54.
The substance SGLVWVTN returned an amyloid nucleation score of -0.018 ± 1.1.
Next, SGMWSNRDEALSCWRG: 0.29 ± 0.54; SGNIAMFVPSVRWSVRDYCC: 1.06 ± 0.14; SGPRLTYSTLSKICALVQAE: 0.457 ± 0.34.
SGSGGSSLLFTIGEQGRRRI: the amyloid nucleation score was -0.876 ± 0.45.
